Measured values reported in the supplement of paper PMC9170038.

Tested on: MS2 coat protein
Experiment: apparent KD of MS2 coat protein; higher = weaker reporter binding
Conditions: Eterna round: R107
How it was run: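 In 100 mM Tris-HCl pH 7.5 with 80 mM KCl and 4 mM MgCl2, and without or with constant ligand, SNAP-549-labelled MS2 coat protein was titrated in twofold steps from 0.7 or 1.5 nM to 3 µM. Per-step times went from 0.8–1.5 h down to 10–20 min. The RNA switches were transcribed on-chip from Illumina sequencing clusters, and apparent KD is the per-design median of normalised cluster binding-curve fits.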

[1] = input ligand: theophylline 20 uM
[2] = input ligand: theophylline 2 mM
[3] = input ligand: tryptophan 2.4 mM

Sequence	apparent KD of MS2 coat protein (input ligand: arginine 13.2 mM) [µM]	apparent KD of MS2 coat protein [1] [µM]	apparent KD of MS2 coat protein [2] [µM]	apparent KD of MS2 coat protein [3] [µM]	apparent KD of MS2 coat protein (input ligand: none) [µM]
UAACAUGAGGAUCACCCAUGUUUGAAGAAACGAGGACCGGUACGGCCGCCACUCGACGAGUGGAUGAAUAGUGGGCUUGUGUGCU [Same State Trp A GF10]	0.011	0.016	0.0131		
UAAUAAAUAAGUGAUACCAGCGAGAAAACAUGAGGAUCACCCAUGUUCGCCCAUGUUAAGCGCCCUUGGCAGCACAAAUAUAAAA [AstrosExyTheB#1]	0.0256	0.0427		0.0336	
UAAUAAGUACCGGUCCUCAGAUCCUCAUGACGAGGACCGGUACGGCCGCCACUCGAAACAUGAGGAUCACCCAUGUAAUAAUAAU [|T'-M'-Trp-Ms2|_Design 1]	0.0179	0.0294	0.0369	0.0183	0.0222
UAAUACCAGGUCAACGUACCAGGUGAUCAACGAGGACCGGUACGGCCGCCACUCGAAACAUGAGGAUCACCCAUGUAAGACCUGG [|T'-M'-Trp-Ms2|_Design 2_ML2]	0.0209	0.185	0.141	0.0613	0.134
UAAUCCGGUCCUCGAUAAUCCUCAUGUAAACGAGGACCGGUACGGCCGCCACUCGAUAACAUGAGGAUCACCCAUGUAAUAAUAA [|T'-M'-Trp-Ms2|_Design14]	0.0475	0.0883	0.0822		
UACAUAUGCCGAAGGAGCGCGAGAUGCAAAGCAUCAAUCCUUACAUGAGGAUCACCCAUGUCGCAGGUAGGUCGCGGCAUAUGUU [ArgBX 2]	0.0268	0.0443	0.0447	0.0361	0.0336
UACAUGAGGAUCACCCAUGUAUGAAUGGAUACCAGCGACAAUGGGCGCCCUUGGCAGCUAGUGGAUGAAGGGUGGGUACAAUACU [Exclusion Theophyline A GF4]	0.0114	0.0177	0.0131	0.0114	0.0134
UACAUGAGGAUCACCCAUGUCCCAUGUGAACGAGGACCGGUACGGCCGCCACUCGAAUAAGGCGGCACAUGAGGAUCACCCACAU [AstrosSSTry#2]	0.283	0.352	0.399		
UACCCAUAGGGAAGGAGCGCGCUAACAUGAGGAUCACCCAUGUAAAGGGUUUCUGGCUUAGCGCAGGUAGGUCGCCCUAUGGGUA [#10 Exclusion - Arginine B]	0.196	0.4	1.05	0.654	0.238
UACCGAUGAAGAAGGAGCGUACGUGGUUCACAUGAGGAUCACCCAUGUGCUUAUUGCUAGGUACAGGUAGGUCGCUUCAUCGGUA [SSAB NP+V+V2 #21]	0.0165	0.021	0.0171	0.0158	0.0155
UACCGAUGAAGAAGGAGCGUGCGUGGUUCACAUGAGGAUCACCCAUGUGCUUUAUACUAGGCACAGGUAGGUCGCUUCAUCGGUA [SSAB NP+V+V2 #22]	0.0243	0.0307	0.0278	0.0233	0.0194
UACGUGGAUGCGGCCGCCACUGCUCUGAGCGAGUUGCUCUAUGGACAUGAGGAUCACCCAUGUCACAGGACCGGGCACGCUUUAA [theeternabot_sameState_MS2_Trp_B_50]	0.00914	0.0119	0.0106		
UACUUGCUGACGGCCGCCACUAGUACAUGAGGAUCACCCAUGUACGGUCGCCCGGUGUGAUCCACUAGGACCGGGUCAGCAAGAU [(Trp1)-(Ms2)-(T)'-(M)'-(Trp2)_Design24]	0.0384	0.0429	0.0485		
UAGAUAGAGGGAAGGAGCGCGAUAACAUAACAUGAGGAUCACCCAUGUAAGAAAUUAAUAAUGCAGGUAGGUCGCCCAAGAUGAU [Same State Arginine B gf1]	0.00876	0.0151	0.019	0.0171	0.0145
UAUACAUGGUAUAAAUAUAUAUAUAAGAAACGAGGACCGGUACGGCCGCCACUCGUGCCGGAAACAUGAGGAUCACCCAUGUAUU [AK1 Exclusion TrypA mod IceBolt]	0.021	0.0393	0.0496		
UAUAUAGAUGGAAGUCAUAUAGAUGCAGAAGGAGCGUAGGAAACUACAGGUAGGUCGCUGAGGUACAUGAGGAUCACCCAUGUAG [SSArg A #18 Slice of Pi]	0.0208	0.0341	0.0253	0.0242	0.0273
UAUAUAUAUCACGAACUGUGGUGUAUGUCUCGAGGACCGGUACGGCCGCCACUCGCGCGGCCUCACAUGAGGAUCACCCAUGUCC [XTryp A #5]	0.0669	0.132	0.107		
UAUCCACAUGAGGAUCACCCAUGUGAGGAAGGAGCGGUGAAUGCACCAGGUAGGUCGCCUUGCUGAGGACAGCCGGUGGAUUCGU [Exclusion - Arginine A (Freestyle 25)]	0.0135	0.0162	0.0158	0.0183	0.0124
UCACAUGAGGAUCACCCAUGUAUAGUUGAAGGAGCGAUCAGGAGGUCAGGUAGGUCGCAGCACAUGAGGAUCACCCAUGUAUCGA [DOUBLE!!! :-D #4]	0.034	0.0727	0.0504	0.0595	0.0852

Sequence	apparent KD of MS2 coat protein (input ligand: arginine 13.2 mM) [µM]	apparent KD of MS2 coat protein [1] [µM]	apparent KD of MS2 coat protein [2] [µM]	apparent KD of MS2 coat protein [3] [µM]	apparent KD of MS2 coat protein (input ligand: none) [µM]
UCACGACGCAUGGAUACCAGCGACAUGAGGAUCACCCAUGUAUGAGGAUCAGCCAUGUUAUGCCCUUGGCAGCCACGAAGGUCAU [KNKMULLIN]	0.0142	0.0201		0.0158	
UCAUGACAUGGGAAUAAAUAAGAAGGCGAAGGAGCGUGAAGAUUCACAGGUAGGUCGCGCAAAAUACAUGAGGAUCACCCAUGUU [JR_Nu_ExcArginiA_Sub032]	0.033	0.0532	0.0439	0.0373	0.0304
UCAUUUGAGUGAGAUGUAAGGUAUCAUGAUACCAGUAGAUAAUUAUACCCUUGGCAGCAUGACAUGAGGAUCACCCAUGUACAUG [Ad]	0.00928	0.0111		0.0123	
UCCACACAUGAGGAUCACCCAUGUUGAGAUACCAGUAAACCAAAAUACCCUUGGCAGCUCCUACGCUCUUACAGCGGGAAUAUCC [theeternabot_sameState_MS2_Theo_A_46]	0.0143	0.0195		0.0149	
UCCCUACCGUCGGCCGCCACUGGGUCAUACAGUUCGUAACUACAUGAGGAUCACCCAUGUGCAGCCAGGACCGGGACGCGCCUUG [theeternabot_sameState_MS2_Trp_B_16]	0.0302	0.153	0.148		
UCCUGCAGAGCGGCCGCCACUGUGUUGCGUGAGGAUGACCCAACAUGAGGAUCACCCAUGUUGUUUAGGACCGGGCUUGCCUCGA [xcmulliny]	0.012	0.0172	0.0155		
UCGGGCAGAGCGGCCGCCACUGUUUGGCAUGCGGAUGACGGAACAUGAGGAUCACCCAUGUUGAUUAGGACCGGGCUUGCGGAGA [eefullin]	0.0116	0.0423	0.0251	0.037	0.0189
UCGGGCAGAGCGGCCGCCACUGUUUGGCGUGCGGAUGACGGAACAUGAGGAUCACCCAUGUUGUUUAGGACCGGGCUUGCGGCGU [ipimullin]	0.0121	0.0167	0.014	0.0121	0.0126
UCGUAGGUAGGAAGGAGCGCAUACUUCACAUGAGGAUCACCCAUGUCGAGACGUGAGUCAGUGCAGGUAGGUCGCCUAGCUAUGA [Same State - Arginine B (Freestyle 25)]	0.0182	0.0357	0.0283	0.0187	0.026
UCGUAGGUAGGAAGGAGCGCAUACUUCACAUGAGGAUCACCCAUGUCGAGACGUGAGUCAGUGCAGGUAGGUCGCCUAGUUAUGA [Same State - Arginine B (Freestyle 24)]	0.0196	0.0362	0.0402	0.0292	0.0411
UCGUCCUCCGCAAGGAGGAGGAGUUGCGAUACCAGCACGGUAACGUGCCCUUGGCAGCGCACAUGAGGAUCACCCAUGUGGUGUU [#1 Exclusion - Theophylline A Attempt #13 (HarryS)]	0.0593	0.425		0.188	
UCGUGUAUAUCGGAUACCAGUGAAAUCGAUACAUGAGGAUCACCCAUGUGAGUUGAUGUACACCCUUGGCAGCUGUAUAUAUCUA [snbullin]	0.015	0.0181		0.0153	
UCGUGUAUAUCGGAUACCAGUGAGAACGAUACAUGAGGAUCACCCAUGUGAGUUGAUGUACACCCUUGGCAGCUGUAUAUAUCUA [gghullin]	0.0189	0.027		0.02	
UCUACAUGAGGAUCACCCAUGUGCCAUGAUACCAGACAUGAAAAUGUCCCUUGGCAGCGUGGGUAGCGCAUCCGAAAGGAUGCGC [#08 SameState-TheophyllineA]	1.37	0.24	1.31	0.0205	0.702
UCUCACAUGAGGAUCACCCAUGUGUGCGGUCGAGGACCGGUACGGCCGCCACUCGAAUCCUUCCGCGAGAAGAUUGUACGACGGC [theeternabot_sameState_MS2_Trp_A_38]	0.0283	0.0744	0.0999		
UCUUUCUUUGUAGAUACCAGCAUGUUAAGUUUCUUUUGACAUGAGGAUCACCCAUGUACAUGCCCUUGGCAGCUACAUUUUCUUU [SSThB NP+V+V2 Same Structure]	0.0156	0.0163		0.0154	
UGACAUUGCUCAGAUACCAGACGUGAGGAUCACCCACGUGCCAACAAGUACAUAAUAAAUGUCCCUUGGCAGCUGAGCAAUGUCU [TheoBX 17 #MS2Left #Theo2 #AlternativeMS2]	0.0164	0.0152	0.0151	0.0109	0.0112
UGAGUUAGACAAAAGUCUAGCUCUGGUGAAGGAGCGUCCGAAAGGACAGGUAGGUCGCACCACAUGAGCAUCAGCCAUGUUCCUU [ArgAS 23 #OpenEnded #AlternativeMS2]	0.0179	0.0269	0.0178	0.0168	0.0173
